Entries after “also recorded” stand apart in the source; their conditions may differ. Ends that are not written are not given here. GST = glutathione S-transferase

One assay deals with T1, integrin αvβ3 (Homo sapiens, UniProt P05106+P06756).
T1 construct: Soluble recombinant integrin αvβ3 (5 μg/ml) was added to the wells; made in house
The experiment in a line: ELISA-type binding of soluble recombinant integrin αvβ3 to immobilized NRG1 fragments. The note with it: soluble αvβ3, 1 mM Mn2+, room temperature. On the procedure: FIG. 1. […] The isolated EGF-like domain of Wt NRG1 was immobilized to wells of 96-well titer plates. The concentrations of the coating solution are shown. Soluble recombinant integrin αvβ3 (5 μg/ml) was added to the wells in the presence of 1 mM Mn^2+ and incubated for 2 h at room temperature. After washing the wells bound αvβ3 was determined by using anti-β3 antibody and HRP-conjugated anti-mouse IgG. The data is shown as means+/−SEM of triplicate experiments. FIG. 7. […] Wt GST-NRG1 (175-222) and the 2KE mutant of GST-NRG1 (175-222) were immobilized to wells of 96-well titer plates. The concentrations of the coating solution are shown. Soluble recombinant integrin αvβ3 (5 μg/ml) was added to the wells in the presence of 1 mM Mn^2+ and incubated for 2 h at room temperature. After washing, the wells bound αvβ3 was determined by using anti-β3 antibody and HRP-conjugated anti-mouse IgG. The data are shown as means+/−SD of triplicate experiments. […] Direct αvβ3-NRG (175-222) interaction: It has been well established that the EGF-like domain of the NRGs is sufficient to specifically activate ErbB receptors and to induce cellular responses in culture. To generate GST-NRG1 EGF-like domain fusion protein, the cDNA fragment of the EGF-like domain of NRG1 was amplified by PCR and subcloned into PGEX-2T vector to generate GST-NRG1 EGF-like domain fusion protein (designated GST-NRG1 (175-222)) in E. coli BL21. The fusion protein was purified in glutathione-affinity chromatography. The affinity resin was extensively washed with 1% Triton X-114 to remove endotoxin before eluting the protein. It was tested, in the present invention, whether soluble recombinant integrin αvβ3 binds to GST-NRG1 (175-222) that is immobilized to plastic wells (ELISA-type assay). […] Cell adhesion and soluble integrin binding assays were performed as described previously (Mori, et al., 2008). NRG1α (175-241) was immobilized to wells of 96-well microtiter plate overnight at 4° C. in 0.1 M carbonate buffer, pH 2 9.4. Remaining protein binding sites were blocked by incubating with 200 μl of 0.1% BSA in PBS for 60 min at room temperature. Wells were then incubated with soluble integrin αvβ3 in 50 μl in Hepes-Tyrode's buffer supplemented with 1 mM Mn2+ at room temperature for 60 min. After rinsing the wells with the same buffer, bound integrins were determined by horseradish peroxidase (HRP)-conjugated anti-His tag mouse IgG and substrate 3,3′,5,5′-tetramethylbenzidine of HRP.
For orientation: In an ELISA, binding on a coated surface is turned into a signal by an enzyme label.

Assay [1] has as its target T2, human integrin αvβ3 on K562 erythroleukemic cells (αvβ3-K562) (human, UniProt P06756 31-1048; P05106 27-788).
T2 construct: whole, on cells; also called K562 cells that express human αvβ3
The experiment in a line: cell adhesion to immobilised NRG1α.

The target in assay [2] is T3, Recombinant human ErbB3 Fc chimera (R&D Systems) (human, UniProt P21860 20-643).
T3 construct: Bought from R&D Systems; also called recombinant soluble ErbB3 Fc fusion protein; recombinant soluble ErbB3; Fc part of the bought chimera not given; not described
The experiment in a line: ELISA-type assay, ErbB3 Fc coated at 1 µg/ml, bound GST fusion detected with anti-GST HRP.

Assay [3] deals with T2, human integrin αvβ3 on K562 …. The experiment in a line: cell adhesion of αvβ3-K562 cells.
For assay [4], the target named is T4, human integrin α6β4 on CHO cells (α6β4-CHO) (human, UniProt P23229 24-1130; P16144 28-1822).
T4 construct: whole, on cells; also called keratinocyte integrin α6β4
The experiment in a line: cell adhesion of α6β4-CHO cells to immobilised 3KE (175-222).

For assay [5], the target named is T2, human integrin αvβ3 on K562 …. The experiment in a line: cell adhesion of αvβ3-K562 cells to immobilised 3KE (175-222).
In assay [6] the test system is mammary intraepithelial neoplasia-outgrowth (MIN-O). The experiment in a line: Outgrowth of precancer (MIN-O) in FVB mice. The class given is in vivo. Particulars: 200 ng/day/mouse intraperitoneally, 5 days a week for 4 weeks; P=0.0355. How it is done: FIG. 16. Inhibitory effect of daily intraperitoneal injection of 3KE (175-222) on the outgrowth of precancer (MIN-O) in FVB mice. MIN-O was transplanted into fat pads of FVB mice (two per mice) and 3KE (175-222) (200 ng/mouse/day) was injected 5 days a week for 4 weeks starting day 0. After 28 days, mice were sacrificed and the dimensions of tumors were measured. Since MIN-O grows as a thin layer, the two-dimensional size was calculated and the thickness was ignored. P=0.0355 by ANOVA between control and 3KE (175-222).
To study the effect of 3KE (175-222) on the premalignant cancer, transplantable mammary intraepithelial neoplasia-outgrowth (MIN-O) tissue lines, which were derived from hyperplastic mammary lesions in young Tg(MMTV-PyV-mT) females (Maglione et al. 2004), were used. The resulting lesions mimic the biological behavior, molecular biology, and histopathology of human ductal carcinoma in situ (Maglione et al. 2004). One mm^3 pieces of the 8w-BMINO tissues (Maglione et al. 2004) were transplanted to gland-cleared no. 4 mammary fat pads of 3-week-old FVB females bilaterally.

T2 sequence (P06756 31-1048, chain 1 of 2): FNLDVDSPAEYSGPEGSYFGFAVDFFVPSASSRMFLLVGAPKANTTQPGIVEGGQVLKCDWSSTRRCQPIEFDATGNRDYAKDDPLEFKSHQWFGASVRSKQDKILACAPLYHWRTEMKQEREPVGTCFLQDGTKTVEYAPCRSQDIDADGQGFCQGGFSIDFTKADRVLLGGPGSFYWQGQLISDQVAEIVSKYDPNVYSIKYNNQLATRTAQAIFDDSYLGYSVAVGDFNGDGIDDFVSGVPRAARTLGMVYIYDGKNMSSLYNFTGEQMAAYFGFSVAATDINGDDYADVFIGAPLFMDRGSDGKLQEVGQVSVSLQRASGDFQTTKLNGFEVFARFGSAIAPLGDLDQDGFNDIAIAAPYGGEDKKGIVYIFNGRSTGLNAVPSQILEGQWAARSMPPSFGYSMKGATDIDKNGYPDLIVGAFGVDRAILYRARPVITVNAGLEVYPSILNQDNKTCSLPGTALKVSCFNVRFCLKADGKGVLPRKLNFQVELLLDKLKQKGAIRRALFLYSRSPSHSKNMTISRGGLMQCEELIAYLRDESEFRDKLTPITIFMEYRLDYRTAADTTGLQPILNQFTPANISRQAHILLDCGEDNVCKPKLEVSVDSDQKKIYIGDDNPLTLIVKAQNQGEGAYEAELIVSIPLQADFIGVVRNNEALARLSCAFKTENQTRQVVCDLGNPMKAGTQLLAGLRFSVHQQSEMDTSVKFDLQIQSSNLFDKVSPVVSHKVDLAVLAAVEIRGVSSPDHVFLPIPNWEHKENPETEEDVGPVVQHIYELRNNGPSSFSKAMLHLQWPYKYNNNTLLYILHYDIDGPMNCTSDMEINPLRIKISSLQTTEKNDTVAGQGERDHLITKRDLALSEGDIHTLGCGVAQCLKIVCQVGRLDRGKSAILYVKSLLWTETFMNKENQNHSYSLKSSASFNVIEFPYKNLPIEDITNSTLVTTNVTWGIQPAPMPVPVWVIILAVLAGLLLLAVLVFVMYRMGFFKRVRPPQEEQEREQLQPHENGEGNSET
T2 sequence (P05106 27-788, chain 2 of 2): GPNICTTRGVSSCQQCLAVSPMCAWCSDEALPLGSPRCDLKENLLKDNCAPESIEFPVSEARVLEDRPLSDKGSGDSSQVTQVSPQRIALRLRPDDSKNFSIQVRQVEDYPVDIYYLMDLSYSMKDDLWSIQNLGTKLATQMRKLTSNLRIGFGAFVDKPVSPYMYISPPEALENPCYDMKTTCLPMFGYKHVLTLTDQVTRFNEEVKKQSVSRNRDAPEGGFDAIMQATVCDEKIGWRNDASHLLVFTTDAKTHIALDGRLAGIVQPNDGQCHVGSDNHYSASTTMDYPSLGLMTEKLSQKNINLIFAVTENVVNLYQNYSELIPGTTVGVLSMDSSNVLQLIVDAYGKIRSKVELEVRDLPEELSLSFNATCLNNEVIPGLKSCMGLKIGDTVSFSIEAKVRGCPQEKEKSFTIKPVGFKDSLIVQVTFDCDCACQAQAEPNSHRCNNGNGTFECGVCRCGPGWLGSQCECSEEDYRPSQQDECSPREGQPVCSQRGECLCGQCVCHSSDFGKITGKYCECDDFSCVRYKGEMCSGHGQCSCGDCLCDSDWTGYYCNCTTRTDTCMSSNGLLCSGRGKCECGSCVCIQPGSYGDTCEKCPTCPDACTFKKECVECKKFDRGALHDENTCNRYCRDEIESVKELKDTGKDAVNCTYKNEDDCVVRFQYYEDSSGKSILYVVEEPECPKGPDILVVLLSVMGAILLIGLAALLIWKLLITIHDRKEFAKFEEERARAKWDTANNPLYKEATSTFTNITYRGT
T1 sequence (P06756 31-992 limits assumed): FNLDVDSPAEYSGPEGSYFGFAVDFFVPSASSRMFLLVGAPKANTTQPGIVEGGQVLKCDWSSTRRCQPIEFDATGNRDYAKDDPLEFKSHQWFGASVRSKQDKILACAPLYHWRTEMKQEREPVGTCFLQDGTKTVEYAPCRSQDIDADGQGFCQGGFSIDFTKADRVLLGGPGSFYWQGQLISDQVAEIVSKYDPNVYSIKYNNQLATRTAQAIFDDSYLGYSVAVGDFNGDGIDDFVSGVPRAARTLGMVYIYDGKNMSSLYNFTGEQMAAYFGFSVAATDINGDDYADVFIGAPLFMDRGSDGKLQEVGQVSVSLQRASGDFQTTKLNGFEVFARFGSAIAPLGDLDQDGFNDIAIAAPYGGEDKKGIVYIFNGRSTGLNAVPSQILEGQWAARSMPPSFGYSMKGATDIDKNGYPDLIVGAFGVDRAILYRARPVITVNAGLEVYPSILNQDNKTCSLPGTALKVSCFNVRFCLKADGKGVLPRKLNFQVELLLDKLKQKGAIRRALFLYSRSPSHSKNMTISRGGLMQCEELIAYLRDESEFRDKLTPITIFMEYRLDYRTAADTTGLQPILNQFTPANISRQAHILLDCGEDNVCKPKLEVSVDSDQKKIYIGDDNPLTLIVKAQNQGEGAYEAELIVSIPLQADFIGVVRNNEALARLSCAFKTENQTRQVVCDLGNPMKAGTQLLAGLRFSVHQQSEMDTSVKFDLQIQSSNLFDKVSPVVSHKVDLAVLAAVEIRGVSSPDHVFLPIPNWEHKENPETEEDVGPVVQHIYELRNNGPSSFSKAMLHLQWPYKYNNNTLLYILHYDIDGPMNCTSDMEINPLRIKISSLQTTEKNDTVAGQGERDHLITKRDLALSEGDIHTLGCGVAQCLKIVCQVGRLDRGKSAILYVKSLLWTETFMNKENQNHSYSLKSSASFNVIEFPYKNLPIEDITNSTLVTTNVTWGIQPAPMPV
T1 sequence (P05106 27-718 limits assumed): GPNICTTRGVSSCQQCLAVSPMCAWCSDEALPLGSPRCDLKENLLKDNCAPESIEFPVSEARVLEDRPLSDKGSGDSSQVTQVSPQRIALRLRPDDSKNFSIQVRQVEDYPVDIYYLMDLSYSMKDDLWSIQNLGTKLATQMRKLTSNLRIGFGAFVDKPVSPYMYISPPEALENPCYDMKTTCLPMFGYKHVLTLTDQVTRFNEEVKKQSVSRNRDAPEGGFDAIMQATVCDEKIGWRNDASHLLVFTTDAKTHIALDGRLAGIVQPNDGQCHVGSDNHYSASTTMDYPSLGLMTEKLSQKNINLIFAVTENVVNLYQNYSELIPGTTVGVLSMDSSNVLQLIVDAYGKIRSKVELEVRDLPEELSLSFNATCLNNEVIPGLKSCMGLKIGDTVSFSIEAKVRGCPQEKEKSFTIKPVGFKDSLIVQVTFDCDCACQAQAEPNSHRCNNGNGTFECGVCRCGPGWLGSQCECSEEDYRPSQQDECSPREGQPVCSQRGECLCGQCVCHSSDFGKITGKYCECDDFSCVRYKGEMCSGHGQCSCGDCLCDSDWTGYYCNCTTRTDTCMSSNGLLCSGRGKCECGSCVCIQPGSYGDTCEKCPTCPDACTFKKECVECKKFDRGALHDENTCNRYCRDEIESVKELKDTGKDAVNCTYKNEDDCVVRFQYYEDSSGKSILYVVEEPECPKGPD
T3 sequence (P21860 20-643, change not shown): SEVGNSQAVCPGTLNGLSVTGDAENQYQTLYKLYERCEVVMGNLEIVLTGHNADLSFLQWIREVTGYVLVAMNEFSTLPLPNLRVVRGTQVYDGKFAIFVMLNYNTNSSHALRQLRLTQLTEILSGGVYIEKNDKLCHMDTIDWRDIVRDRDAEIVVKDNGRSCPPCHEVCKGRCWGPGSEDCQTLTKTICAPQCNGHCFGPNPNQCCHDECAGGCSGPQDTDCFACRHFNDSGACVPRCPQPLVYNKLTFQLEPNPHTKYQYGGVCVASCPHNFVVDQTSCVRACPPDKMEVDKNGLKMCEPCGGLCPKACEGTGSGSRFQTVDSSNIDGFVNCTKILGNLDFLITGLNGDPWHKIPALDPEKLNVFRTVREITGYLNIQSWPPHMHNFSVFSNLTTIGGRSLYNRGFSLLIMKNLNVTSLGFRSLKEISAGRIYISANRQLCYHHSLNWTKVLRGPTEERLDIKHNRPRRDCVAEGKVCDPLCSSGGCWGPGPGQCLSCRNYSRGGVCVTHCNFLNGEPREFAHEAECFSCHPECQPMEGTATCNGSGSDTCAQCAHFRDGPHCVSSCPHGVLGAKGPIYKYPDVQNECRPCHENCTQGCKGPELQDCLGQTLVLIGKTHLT

Take “2KE (175-222): NRG1 (175-222) with Lys185/Lys187 mutated to Glu; GTSHLVKCAEEEETFCVNGGECFMVKDLSNPSRYLCKCQPGFTGARCT (SEQ ID NO:12) (integrin-binding site within human neuregulin, 2KE mutant, short version)”: in the assay with integrin αvβ3, the “Binding of soluble recombinant integrin αvβ3 to the immobilized protein” value is listed as “much lower affinity to αvβ3; also recorded: did not”.

B1: GST-NRG1α (175-241), wild type (EGF-like motif and α domain of human neuregulin 1α as GST fusion protein) (ligand)
chain: GTSHLVKCAEKEKTFCVNGGECFMVKDLSNPSRYLCKCQPGFTGARCTENVPMKVQNQEKAEELYQK
notes: not shown: glutathione S-transferase (GST) tag as encoded by the pGEX-2T vector, N-terminal
With B1, the binding result in assay [1] and in assay [2] was “binds” in each case.

B2: 3KE (175-241) mutant of NRG1α (Lys181/Lys185/Lys187 to Glu), GST fusion protein (ligand, not shown: a dimerising Fc or GST; large carriers; small tags and cut ends)
chain: GTSHLVECAEEEETFCVNGGECFMVKDLSNPSRYLCKCQPGFTGARCTENVPMKVQNQEKAEELYQK
In the case of B2, the binding result in assay [2] is given as “binds”.

B3: GST-NRG1 (175-222), wild type EGF-like domain of human neuregulin 1 as GST fusion protein (ligand)
chain: {GST}-GTSHLVKCAEKEKTFCVNGGECFMVKDLSNPSRYLCKCQPGFTGARCT
modifications: not fully specified; cysteine pairing not given here
notes: Made in E. coli as GST fusion (pGEX-2T); not shown: glutathione S-transferase (GST) tag as encoded by the pGEX-2T vector, N-terminal
For B3, in assay [3], the binding result is listed as “binds”.

B4: 3KE (175-222) mutant of NRG1 (Lys181/Lys185/Lys187 to Glu), GST fusion protein (ligand, not shown: a dimerising Fc or GST; large carriers; small tags and cut ends)
chain: GTSHLVECAEEEETFCVNGGECFMVKDLSNPSRYLCKCQPGFTGARCT
Turning to B4, the binding result in assay [4] and in assay [5] was “no binding” each time.

B5: γC399tr: Control protein in the MIN-O experiment (protein)
chain: KDCQDIANKGAKQSGLYFIKPLKANQQFLVYCEIDGSGNGWTVFQKRLDGSVDFKKNWIQYKEGFGHLSPTGTTEFWLGNEKIHLISTQSAIPYALRVELEDWNGRTSTADYAMFKVGPEADKYRLTYAYFAGGDAGDAFDGFDFGDDPSDKFFTSHNGMQFSTWDNDNDKFEGNCAEQDGSGWWMNKCHAGHLNGVYYQGGTYSKASTPNGYDNGIIWATWKTRWYSMKKTTMKIIPFNRLTIGEGQQ
For B5, in assay [6], the “Outgrowth of MIN-O in FVB mice” value is “did not affect the outgrowth of MIN-O”.

(Values after patent US20110212108A1, “NEUREGULIN/ERBB SIGNALING AND INTEGRIN” (THE REGENTS OF THE UNIVERSITY OF CALIFORNIA, priority 2008, published 2011).)
